Source: the supplement of paper PMC11246515
± gives the standard deviation of the averaged measurements.

Assay: total protein half-life in vivo (active degradation + dilution); higher = more stable protein
[1] = E. coli NCM3722 delta-clpP delta-lon delta-hslV, growth: N-lim chemostat, doubling time 6 h
[2] = E. coli NCM3722 delta-clpP, growth: N-lim chemostat, doubling time 6 h
[3] = E. coli NCM3722 delta-hslV, growth: N-lim chemostat, doubling time 6 h
[4] = E. coli NCM3722 delta-lon, growth: N-lim chemostat, doubling time 6 h
[5] = E. coli NCM3722 delta-smpB, growth: N-lim chemostat, doubling time 6 h
[6] = wild type E. coli NCM3722, growth: C-lim chemostat, doubling time 3 h
[7] = wild type E. coli NCM3722, growth: C-lim chemostat, doubling time 6 h
[8] = wild type E. coli NCM3722, growth: C-lim chemostat, doubling time 12 h
[9] = wild type E. coli NCM3722, growth: N-lim chemostat, doubling time 6 h
[10] = wild type E. coli NCM3722, growth: N-lim chemostat, doubling time 12 h
[11] = wild type E. coli NCM3722, growth: P-lim chemostat, doubling time 6 h
[12] = wild type E. coli NCM3722, growth: P-lim chemostat, doubling time 12 h

In the case of “MKFPGKRKSKHYFPVNARDPLLQQFQPENETSAAWVVGIDQTLVDIEAKVDDEFIERYGLSAGHSLVIEDDVAEALYQELKQKNLITHQFAGGTIGNTMHNYSVLADDRSVLLGVMCSNIEIGSYAYRYLCNTSSRTDLNYLQGVDGPIGRCFTLIGESGERTFAISPGHMNQLRAESIPEDVIAGASALVLTSYLVRCKPGEPMPEATMKAIEYAKKYNVPVVLTLGTKFVIAENPQWWQQFLKDHVSILAMNEDEAEALTGESDPLLASDKALDWVDLVLCTAGPIGLYMAGFTEDEAKRKTQHPLLPGAIAEFNQYEFSRAMRHKDCQNPLRVYSHIAPYMGGPEKIMNTNGAGDGALAALLHDITANSYHRSNVPNSSKHKFTWLTYSSLAQVCKYANRVSYQVLNQHSPRLTRGLPEREDSLEESYWDR [P0AEW6]”, the “total protein half-life in vivo” value [1] is reported as 4.78 ± 0.21 h, the “total protein half-life in vivo” value [2] is reported as 5.5 ± 1.9 h and the “total protein half-life in vivo” value [3] is reported as 4.38 ± 0.28 h. The “total protein half-life in vivo” value [4] was 6.01 ± 2.3 h, the “total protein half-life in vivo” value [5] was 4.03 ± 0.31 h and the “total protein half-life in vivo” value [6] was 2.86 ± 0.38 h. For the same sequence, the “total protein half-life in vivo” value [7] was 5.87 ± 1.5 h, the “total protein half-life in vivo” value [8] was 8.23 h and the “total protein half-life in vivo” value [9] was 4.14 ± 0.24 h. For the same sequence, the “total protein half-life in vivo” value [10] was 8.14 ± 1.9 h, the “total protein half-life in vivo” value [11] was 5.07 ± 0.35 h and the “total protein half-life in vivo” value [12] was 9.56 ± 0.61 h.
In the case of “MSSFDYLKTAIKQQGCTLQQVADASGMTKGYLSQLLNAKIKSPSAQKLEALHRFLGLEFPRQKKTIGVVFGKFYPLHTGHIYLIQRACSQVDELHIIMGFDDTRDRALFEDSAMSQQPTVPDRLRWLLQTFKYQKNIRIHAFNEEGMEPYPHGWDVWSNGIKKFMAEKGIQPDLIYTSEEADAPQYMEHLGIETVLVDPKRTFMSISGAQIRENPFRYWEYIPTEVKPFFVRTVAILGGESSGKSTLVNKLANIFNTTSAWEYGRDYVFSHLGGDEIALQYSDYDKIALGHAQYIDFAVKYANKVAFIDTDFVTTQAFCKKYEGREHPFVQALIDEYRFDLVILLENNTPWVADGLRSLGSSVDRKEFQNLLVEMLEENNIEFVRVEEEDYDSRFLRCVELVREMMGEQR”, the “total protein half-life in vivo” value [1] is reported as 5.91 ± 0.15 h, the “total protein half-life in vivo” value [3] is reported as 5.88 ± 0.4 h and the “total protein half-life in vivo” value [4] is reported as 6.4 ± 0.35 h. For the same sequence, the “total protein half-life in vivo” value [5] was 5.71 ± 0.23 h, the “total protein half-life in vivo” value [6] was 2.975 ± 0.013 h and the “total protein half-life in vivo” value [7] was 5.76 ± 0.61 h. The “total protein half-life in vivo” value [8] was 10.5 ± 1.5 h, the “total protein half-life in vivo” value [9] was 5.3 ± 0.24 h and the “total protein half-life in vivo” value [10] was 10.6 ± 1.9 h. The “total protein half-life in vivo” value [11] was 5.97 ± 0.31 h and the “total protein half-life in vivo” value [12] was 10.8 ± 0.14 h.
With “MNYSHDNWSAILAHIGKPEELDTSARNAGALTRRREIRDAATLLRLGLAYGPGGMSLREVTAWAQLHDVATLSDVALLKRLRNAADWFGILAAQTLAVRAAVTGCTSGKRLRLVDGTAISAPGGGSAEWRLHMGYDPHTCQFTDFELTDSRDAERLDRFAQTADEIRIADRGFGSRPECIRSLAFGEADYIVRVHWRGLRWLTAEGMRFDMMGFLRGLDCGKNGETTVMIGNSGNKKAGAPFPARLIAVSLPPEKALISKTRLLSENRRKGRVVQAETLEAAGHVLLLTSLPEDEYSAEQVADCYRLRWQIELAFKRLKSLLHLDALRAKEPELAKAWIFANLLAAFLIDDIIQPSLDFPPRSAGSEKKN [P0CF93]” the “total protein half-life in vivo” value [1] was 5.49 ± 0.06 h, the “total protein half-life in vivo” value [2] was 0.94 h and the “total protein half-life in vivo” value [3] was 1.34 ± 0.12 h. The “total protein half-life in vivo” value [4] was 1.85 ± 0.024 h, the “total protein half-life in vivo” value [5] was 0.81 h and the “total protein half-life in vivo” value [6] was 0.861 ± 0.23 h. For the same sequence, the “total protein half-life in vivo” value [7] was 1.69 ± 0.64 h, the “total protein half-life in vivo” value [8] was 2.64 ± 0.44 h and the “total protein half-life in vivo” value [9] was 1.62 ± 0.41 h. The “total protein half-life in vivo” value [10] was 2.3 ± 0.26 h, the “total protein half-life in vivo” value [11] was 0.485 h and the “total protein half-life in vivo” value [12] was 11.9 h.
With “MNTRQLLSVGIDIGTTTTQVIFSRLELVNRAAVSQVPRYEFIKREISWQSPVFFTPVDKQGGLKEAELKTLILEQYHAAGIEPESVDSGAIIITGESAKTRNARPAVMALSQSLGDFVVASAGPHLESVIAGHGAGAQTLSEQRLCRVLNIDIGGGTANYALFDAGKISGTACLNVGGRLLETDSHGRVVYAHKPGQMIVDECFGAGTDARSLTGAQLVQVTRRMAELIVEVIDGTLSPLAQALMQTGLLPAGVTPEIITLSGGVGECYRHQPADPFCFADIGPLLATALHDHPRLREMNVQFPAQTVRATVIGAGAHTLSLSGSTIWLEGVQLPLRNLPVAIPIDETDLVGAWQQALIQLDLDPKTDAYVLALPASLPVRYAAVLTVINALVDFVARFPNPHPLLVVAGQDFGKALGMLLRPQLQQLPLAVIDEVIVRAGDYIDIGTPLFGGSVVPVTVKSLAFPS” the “total protein half-life in vivo” value [1] was 5.67 h.
In the case of “MSRRLRRTKIVTTLGPATDRDNNLEKVIAAGANVVRMNFSHGSPEDHKMRADKVREIAAKLGRHVAILGDLQGPKIRVSTFKEGKVFLNIGDKFLLDANLGKGEGDKEKVGIDYKGLPADVVPGDILLLDDGRVQLKVLEVQGMKVFTEVTVGGPLSNNKGINKLGGGLSAEALTEKDKADIKTAALIGVDYLAVSFPRCGEDLNYARRLARDAGCDAKIVAKVERAEAVCSQDAMDDIILASDVVMVARGDLGVEIGDPELVGIQKALIRRARQLNRAVITATQMMESMITNPMPTRAEVMDVANAVLDGTDAVMLSAETAAGQYPSETVAAMARVCLGAEKIPSINVSKHRLDVQFDNVEEAIAMSAMYAANHLKGVTAIITMTESGRTALMTSRISSGLPIFAMSRHERTLNLTALYRGVTPVHFDSANDGVAAASEAVNLLRDKGYLMSGDLVIVTQGDVMSTVGSTNTTRILTVE”, the “total protein half-life in vivo” value [1] is reported as 5.558 ± 0.04 h, the “total protein half-life in vivo” value [2] is reported as 5.39 ± 0.19 h and the “total protein half-life in vivo” value [3] is reported as 5.15 ± 0.41 h. For the same sequence, the “total protein half-life in vivo” value [4] was 5.61 ± 0.28 h, the “total protein half-life in vivo” value [5] was 5.32 ± 0.27 h and the “total protein half-life in vivo” value [6] was 3.02 ± 0.11 h. For the same sequence, the “total protein half-life in vivo” value [7] was 5.989 ± 0.05 h, the “total protein half-life in vivo” value [8] was 11.4 ± 0.78 h and the “total protein half-life in vivo” value [9] was 5.4882 ± 0.00083 h. The “total protein half-life in vivo” value [10] was 9.898 ± 0.052 h, the “total protein half-life in vivo” value [11] was 5.96 ± 0.26 h and the “total protein half-life in vivo” value [12] was 13.1 ± 0.68 h.
